Measurements as given in US20230287090A1 (FEINSTEIN INSTITUTES FOR MEDICAL RESEARCH, published 2023).
Numbering of substitutions follows the chain as printed. Like-named read-outs stand apart in the source and are kept apart here.

T1: TN
T1 single chain: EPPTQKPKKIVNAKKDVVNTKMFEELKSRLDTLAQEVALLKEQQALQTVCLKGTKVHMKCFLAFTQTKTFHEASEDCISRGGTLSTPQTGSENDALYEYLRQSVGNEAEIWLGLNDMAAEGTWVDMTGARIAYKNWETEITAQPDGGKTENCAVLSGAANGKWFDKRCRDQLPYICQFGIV

B1: Clone 27B12 (mAb8) (antibody, V domains shown)
VH: DVKLVESGGGLVKLGGSLKLSCAASGFTFSTDYMSWVRQSPEKRLELVAAINSNGGTTYYPDTVKGRFIISRDNAKNTLYLQMSSLRSEDTALYYCARQVKNGLDYWGQGTSVTVSS
VL: DIQMTQTTSSLSASLGDRVTISCRASQDISNYLNWYQQKPDGTVKLLIYKTSRLHSGVPSRFRGSGSGTDYSLTISNLEEEDVATYFCQQGNTLPPTFGGGTKLEIK
B2: Clone 25B2 (mAb6) (antibody, V domains shown)
VH: B1 VH with K3N, A24D, T31S, D32Y, S40T, T57R, I69T, R87K, V100G
VL: B1 VL with Y32H, V44I, K50Y, R63S, Y71F, T74S, E80Q, V83I, N92K
B3: 23F6 (mAb5) (antibody, V domains shown)
VH: B1 VH with T31S, D32S, S40T, S53N, I69T, R87K, A97T, V100G
VL: B1 VL with S30G, Y32L, Y49S, K50Y, R63S, S76T, E80Q, V83I, G91A, T102S
B4: Clone 18B1 (mAb2) (antibody, V domains shown)
VH: B1 VH with K13N, T31S, S40I, I69T, R87K, V100G, L104M
VL: B1 VL with Y32H, K39R, K50Y, R63S, L73F, S76T, E79D, E80Q, V83I, N92K

Key:
[1] = biological target: T2, Recombinant receptor-binding motif (RBM, residues 437-508) of SARS-CoV-2 spike (S) protein with N-terminal … (SARS-CoV-2, UniProt P0DTC2 437-508)
[2] = biological target: T2, Recombinant receptor-binding motif …; remark: listed apart in the source
[3] = biological target: T1, TN
[4] = biological target: T2, Recombinant receptor-binding motif …; remark: listed apart in the source

| Binder | Kd [1] [nM] | Kd [2] [nM] | Kd [3] [nM] | Kd [4] [nM] |
| --- | --- | --- | --- | --- |
| B1 | 57.4 | 17.4 | 2.02 | 17.4 |
| B2 | – | 180 | 0.915 | 180 |
| B3 | – | – | 8.03 | – |
| B4 | – | 62.8 | 0.114 | 62.8 |
